In paper PMC9557913 (Molecular cell, 2022):
Each block holds one binder with its values, some of them ahead of it.

What was measured:
SEC = target: the molecule itself; assay: SEC
MCU, Q8NE86 = target: T1, MCU, Q8NE86; assay: co-IP; conditions: remark: other sources report otherwise
T1 chain: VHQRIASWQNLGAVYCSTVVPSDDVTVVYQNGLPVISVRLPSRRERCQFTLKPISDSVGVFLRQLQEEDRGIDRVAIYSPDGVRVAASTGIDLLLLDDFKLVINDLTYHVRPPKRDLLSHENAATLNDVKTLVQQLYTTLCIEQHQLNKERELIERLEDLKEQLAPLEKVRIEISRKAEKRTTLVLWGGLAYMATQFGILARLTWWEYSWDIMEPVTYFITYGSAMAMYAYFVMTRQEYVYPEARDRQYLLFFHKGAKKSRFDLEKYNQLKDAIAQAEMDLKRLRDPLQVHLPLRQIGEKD

B1: purified human MICU2 (MICU2-2ND) (natural protein, UniProt Q8IYU8 23-434, looked up)
chain: AVSRQAVRSPGPLAAAVAGAALAGAGAAWHHSRVSVAARDGSFTVSAQKNVEHGIIYIGKPSLRKQRFMQFSSLEHEGEYYMTPRDFLFSVMFEQMERKTSVKKLTKKDIEDTLSGIQTAGCGSTFFRDLGDKGLISYTEYLFLLTILTKPHSGFHVAFKMLDTDGNEMIEKREFFKLQKIISKQDDLMTVKTNETGYQEAIVKEPEINTTLQMRFFGKRGQRKLHYKEFRRFMENLQTEIQEMEFLQFSKGLSFMRKEDFAEWLLFFTNTENKDIYWKNVREKLSAGESISLDEFKSFCHFTTHLEDFAIAMQMFSLAHRPVRLAEFKRAVKVATGQELSNNILDTVFKIFDLDGDECLSHEEFLGVLKNRMHRGLWVPQHQSIQEYWKCVKKESIKGVKEVWKQAGKGLF
stoichiometry N (SEC): 2

fold co-precipitated with MCU, against MICU1-2D (MCU, Q8NE86): 2 fold
B2: disulfide-connected MICU1-MICU1 homodimer (MICU1-1D), Q9BPX6 34-476 (complex)
chain: MMVAFLGASAVTASTGLLWKRAHAESPPCVDNLKSDIGDKGKNKDEGDVCNHEKKTADLAPHPEEKKKKRSGFRDRKVMEYENRIRAYSTPDKIFRYFATLKVISEPGEAEVFMTPEDFVRSITPNEKQPEHLGLDQYIIKRFDGKKISQEREKFADEGSIFYTLGECGLISFSDYIFLTTVLSTPQRNFEIAFKMFDLNGDGEVDMEEFEQVQSIIRSQTSMGMRHRDRPTTGNTLKSGLCSALTTYFFGADLKGKLTIKNFLEFQRKLQHDVLKLEFERHDPVDGRITERQFGGMLLAYSGVQSKKLTAMQRQLKKHFKEGKGLTFQEVENFFTFLKNINDVDTALSFYHMAGASLDKVTMQQVARTVAKVELSDHVCDVVFALFDCDGNGELSNKEFVSIMKQRLMRGLEKPKDMGFTRLMQAMWKCAQETAWDFALPKQ
modifications: here or on the partner: intersubunit disulfide through C463

B3: purified MBP-fused human MICU1 (MICU1-1ND) (natural protein, UniProt Q9BPX6 34-476, looked up)
chain: B2 chain
stoichiometry N (SEC): 2
